# Residue numbers refer to the chain shown, from its start. In names and notes the source's numbering stands. Like-named read-outs stand apart in the source and are kept apart here.
# T1: Recombinant human DSG2 protein (desmoglein 2), soluble (human, UniProt Q14126 50-609)
# T1 construct: also called soluble DSG2; soluble recombinant DSG2
# T1 sequence: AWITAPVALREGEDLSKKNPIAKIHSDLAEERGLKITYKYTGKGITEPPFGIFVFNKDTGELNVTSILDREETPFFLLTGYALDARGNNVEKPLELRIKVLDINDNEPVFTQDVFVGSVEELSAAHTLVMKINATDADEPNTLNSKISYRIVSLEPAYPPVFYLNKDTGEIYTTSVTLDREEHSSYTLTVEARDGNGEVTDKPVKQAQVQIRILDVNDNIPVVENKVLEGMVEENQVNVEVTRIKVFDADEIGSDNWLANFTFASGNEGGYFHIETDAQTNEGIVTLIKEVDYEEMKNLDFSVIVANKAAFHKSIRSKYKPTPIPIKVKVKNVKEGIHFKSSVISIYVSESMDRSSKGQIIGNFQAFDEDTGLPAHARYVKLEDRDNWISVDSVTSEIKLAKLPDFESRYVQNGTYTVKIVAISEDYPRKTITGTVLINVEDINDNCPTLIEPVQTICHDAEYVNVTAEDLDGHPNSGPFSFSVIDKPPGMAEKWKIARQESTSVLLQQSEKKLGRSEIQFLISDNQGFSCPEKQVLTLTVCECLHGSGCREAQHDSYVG
# T2: Soluble CD46 (UniProt P15529 35-343)
# T2 construct: also called sCD46
# T2 sequence: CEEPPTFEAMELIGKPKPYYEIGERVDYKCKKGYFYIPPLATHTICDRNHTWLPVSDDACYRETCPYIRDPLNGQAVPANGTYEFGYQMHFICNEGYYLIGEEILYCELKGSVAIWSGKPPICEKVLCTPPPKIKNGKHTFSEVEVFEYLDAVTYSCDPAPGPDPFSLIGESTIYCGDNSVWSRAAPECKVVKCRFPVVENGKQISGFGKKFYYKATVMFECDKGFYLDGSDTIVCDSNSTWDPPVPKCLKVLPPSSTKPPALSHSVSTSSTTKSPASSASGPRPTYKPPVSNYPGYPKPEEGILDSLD
# T3: DSG2 on human cells (HeLa, T84) (human, UniProt Q14126 50-1118)
# T3 sequence: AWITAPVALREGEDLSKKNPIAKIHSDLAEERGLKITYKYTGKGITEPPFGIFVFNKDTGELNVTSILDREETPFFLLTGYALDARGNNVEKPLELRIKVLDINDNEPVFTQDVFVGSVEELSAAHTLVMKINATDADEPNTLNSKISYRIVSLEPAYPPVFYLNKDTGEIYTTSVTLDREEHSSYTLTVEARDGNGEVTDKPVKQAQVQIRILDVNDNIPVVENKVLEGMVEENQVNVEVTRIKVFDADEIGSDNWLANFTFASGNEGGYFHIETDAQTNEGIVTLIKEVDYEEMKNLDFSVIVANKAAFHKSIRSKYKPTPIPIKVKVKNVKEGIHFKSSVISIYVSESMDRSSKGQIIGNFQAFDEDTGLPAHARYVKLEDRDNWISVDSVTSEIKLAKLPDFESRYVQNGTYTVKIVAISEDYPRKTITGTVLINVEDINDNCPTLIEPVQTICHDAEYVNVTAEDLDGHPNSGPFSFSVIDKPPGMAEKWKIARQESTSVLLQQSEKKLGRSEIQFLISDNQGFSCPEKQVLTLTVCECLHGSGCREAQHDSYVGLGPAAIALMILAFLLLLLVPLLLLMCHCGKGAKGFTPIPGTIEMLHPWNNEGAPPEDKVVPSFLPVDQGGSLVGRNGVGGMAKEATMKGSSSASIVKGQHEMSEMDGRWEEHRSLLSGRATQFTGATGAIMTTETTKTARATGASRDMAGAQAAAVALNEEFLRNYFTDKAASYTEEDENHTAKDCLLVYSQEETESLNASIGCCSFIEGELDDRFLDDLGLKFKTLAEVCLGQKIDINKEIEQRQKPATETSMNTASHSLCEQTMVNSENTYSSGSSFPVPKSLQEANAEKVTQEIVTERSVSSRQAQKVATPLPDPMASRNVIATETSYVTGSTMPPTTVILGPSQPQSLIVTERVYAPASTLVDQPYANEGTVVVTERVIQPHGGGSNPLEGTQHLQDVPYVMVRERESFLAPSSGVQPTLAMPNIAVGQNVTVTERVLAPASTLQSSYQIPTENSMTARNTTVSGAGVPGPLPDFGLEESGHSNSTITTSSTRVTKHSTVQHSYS
# B1: Ad3-S/Kn (ligand)
# chain: SIALKNNTLWTGPKPEANCIIEYGKQNPDSKLTLILVKNGGIVNGYVTLMGASDYVNTLFKNKNVSINVELYFDATGHILPDSSSLKTDLELKYKQTADFSARGFMPSTTAYPFVLPNAGTHNENYIFGQCYYKASDGALFPLEVTVMLNKRLPDSRTSYVMTFLWSLNAGLAPETTQATLITSPFTFSYIREDD
# B2: Ad3 fiber knob mutant V239D without dimerization domain (ligand)
# chain: NKLCSKLGNGLTFDSSNSIALKNNTLWTGPKPEANCIIEYGKQNPDSKLTLILVKNGGIVNGYVTLMGASDYVNTLFKNKNVSINVELYFDATGHILPDSSSLKTDLELKYKQTADFSARGFMPSTTAYPFDLPNAGTHNENYIFGQCYYKASDGALFPLEVTVMLNKRLPDSRTSYVMTFLWSLNAGLAPETTQATLITSPFTFSYIREDD
# notes: range 108-319; also called V239D/noDD; not shown: N-terminal 6-His tag of pQE30 and a Gly/Ser linker coded by primer P1
# B3: Ad3 fiber knob mutant Y250F without dimerization domain (ligand)
# chain: B2 chain with D132V, Y143F
# notes: range 108-319; also called Y250F/noDD; not shown: N-terminal 6-His tag of pQE30 and a Gly/Ser linker coded by primer P1
# B4: JO-1 (dimeric wild-type Ad3 fiber knob) (ligand)
# chain: MKVSALKEKVSALKEKVSALKEKVSALKEKVSALKEGSGGGSGGGSGGGSNSIALKNNTLWTGPKPEANCIIEYGKQNPDSKLTLILVKNGGIVNGYVTLMGASDYVNTLFKNKNVSINVELYFDATGHILPDSSSLKTDLELKYKQTADFSARGFMPSTTAYPFVLPNAGTHNENYIFGQCYYKASDGALFPLEVTVMLNKRLPDSRTSYVMTFLWSLNAGLAPETTQATLITSPFTFSYIREDD
# notes: also called dimeric wt Ad3 fiber knob; dimeric wtAd3 knob
# B5: Dimeric Ad3 fiber knob mutant N186D, D261N, L296R (ligand)
# chain: B4 chain with N113D, D188N, L223R
# notes: also called mutant with mutations in all three areas (N185, D261, L296)
# B6: Ad3-S6/Kn (ligand)
# chain: NGVLSLKCVNPLTTASGSLQLKVGSGLTVDTTDGSLEENIKVNTPLTKSNHSINLPIGNGLQIEQNKLCSKLGNGLTFDSSNSIALKNNTLWTGPKPEANCIIEYGKQNPDSKLTLILVKNGGIVNGYVTLMGASDYVNTLFKNKNVSINVELYFDATGHILPDSSSLKTDLELKYKQTADFSARGFMPSTTAYPFVLPNAGTHNENYIFGQCYYKASDGALFPLEVTVMLNKRLPDSRTSYVMTFLWSLNAGLAPETTQATLITSPFTFSYIREDD
# notes: also called Ad3 fiber knob with six shaft motifs
# Tests used:
# [1] = biological target: DSG2 on human cells (HeLa, T84) (human) (UniProt Q14126); experiment: cell-based or functional assay
# [2] = biological target: DSG2 on human cells (HeLa, T84) (human) (UniProt Q14126); experiment: competition with 3H-labelled Ad3 virus for attachment to HeLa cells
# [3] = biological target: T1, Recombinant human DSG2 protein …; experiment: Western blot of the blotted knob protein probed with soluble human DSG2, anti-DSG2 mAb 6D8 and HRP-anti-mouse IgG
# Soluble CD46 = biological target: T2, Soluble CD46; experiment: Western blot, soluble CD46 as probe, anti-CD46 mAb
# [4] = biological target: T3, DSG2 on human cells (HeLa, T84); experiment: cell-based or functional assay
# [5] = biological target: T1, Recombinant human DSG2 protein …; experiment: SPR, DSG2 immobilised; the filing's constants were got with the knobs without dimerization domain, so the value is set on V239D/noDD
# [6] = biological target: T1, Recombinant human DSG2 protein …; experiment: SPR, DSG2 immobilised; the filing's constants were got with the knobs without dimerization domain, so the value is set on Y250F/noDD
# [7] = biological target: T3, DSG2 on human cells (HeLa, T84); experiment: cell-based or functional assay; remark: listed apart in the source
# [8] = biological target: T3, DSG2 on human cells (HeLa, T84); experiment: cell-based or functional assay; remark: listed apart in the source
# [9] = biological target: T1, Recombinant human DSG2 protein …; experiment: Western blot of dimeric knob, soluble DSG2 as probe
molecule,measurement,setting,value
"Dimeric Ad3 fiber knob mutant D261N, L296R (ligand)",Inhibition of infection in the presence of dimeric knob (JO-1 = 100%),[1],1.5%
same,Inhibition of attachment in the presence of dimeric knob (JO-1 = 100%),[2],20.1%
"Dimeric Ad3 fiber knob mutant N186D, D261N, L296R (ligand)",Inhibition of infection in the presence of dimeric knob (JO-1 = 100%),[1],0%
same,Inhibition of attachment in the presence of dimeric knob (JO-1 = 100%),[2],18.5%
B1,binding result,[3],no binding
same,binding result,Soluble CD46,no binding
B2,"IC50 (read off the curve): inhibition of Ad3-GFP infection of HeLa cells, MFI of GFP",[4],~4 µg/mL
same,Kd,[5],24.9 nM
B3,Kd,[6],11.4 nM
B4,"IC50 (read off the curve): inhibition of Ad3-GFP infection of HeLa cells, % GFP-positive cells",[7],~5 µg/mL
same,"IC50 (read off the curve): inhibition of Ad3-GFP infection of HeLa cells, MFI of GFP",[8],~0.6 µg/mL
same,binding result,Soluble CD46,no binding
B5,binding result,[9],no binding
B6,binding result,Soluble CD46,no binding
